B1: PLD5 (parent)
chain: WIVDKQHVYIGSAGLDWQSLGQMK
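Further: lentivirally expressed fusions sorted by FACS into six bins by GFP to DsRed ratio, PSI derived from sequencing read proportions per bin multiplied by bin number.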

In the series the parent is B1. The series can be described thus: protein stability index of a GFP-peptide fusion (GPS, HEK-293T) (PSI 1-6); higher = more stable. The following applies: c terminus: a fixed tail appended.
As for WIVDKQHVYIASAGLDWQSLGQMK [G11A], the protein stability index came to 1.69.

Regarding WIVDKQHVYIESAGLDWQSLGQMK [G11E], the protein stability index is 2.82.

As to WIVDKQHVYIPSAGLDWQSLGQMK [G11P], the protein stability index is 2.12.

In the case of WIVGKQHVYIGSAGLDWQSLGQMK [D4G], the protein stability index came to 1.39.

Regarding WIVRKQHVYIGSAGLDWQSLGQMK [D4R], the protein stability index was 3.94.

On to WIVDKQHVYIGSAGSDWQSLGQMK [L15S], for which the protein stability index was 1.7.

As to WIVDKQHVYIGSAGRDWQSLGQMK [L15R], the protein stability index was 1.55.

Consider WIVDKQHVYIGSAGGDWQSLGQMK [L15G], for which the protein stability index worked out at 2.2.

In the case of WIVDKQHVYIGSAGLDWQSLGQMT [K24T], the protein stability index stood at 2.23.

Take WIVDKQHVYIGSAGLDWQSLGQMC [K24C]: the protein stability index is 3.61.

On to WIVDKQHVYIGSAGLDWQSLGQMA [K24A], for which the protein stability index came to 2.37.

For WIDDKQHVYIGSAGLDWQSLGQMK [V3D], the protein stability index was found to be 2.02.

As for WIEDKQHVYIGSAGLDWQSLGQMK [V3E], the protein stability index was 2.09.

As to WIFDKQHVYIGSAGLDWQSLGQMK [V3F], the protein stability index amounted to 1.96.

In the case of WIIDKQHVYIGSAGLDWQSLGQMK [V3I], the protein stability index was 2.64.

In the case of WIKDKQHVYIGSAGLDWQSLGQMK [V3K], the protein stability index was found to be 1.84.

Take WINDKQHVYIGSAGLDWQSLGQMK [V3N]: the protein stability index was 2.35.

As to WIGDKQHVYIGSAGLDWQSLGQMK [V3G], the protein stability index is 2.1.

Regarding WIVDKQHHYIGSAGLDWQSLGQMK [V8H], the protein stability index came to 1.54.

As for WIVDKQHQYIGSAGLDWQSLGQMK [V8Q], the protein stability index stood at 2.11.

For WIVDKQHLYIGSAGLDWQSLGQMK [V8L], the protein stability index turned out to be 1.93.

Turning to WIVDKQHYYIGSAGLDWQSLGQMK [V8Y], the protein stability index was 1.25.

Take WIVDKQHVYIGSAGLDWPSLGQMK [Q18P]: the protein stability index is 1.85.

As for WIVDKQHVYIGSAGLDWRSLGQMK [Q18R], the protein stability index turned out to be 1.47.

WIVDKQHVYIGSAGLDWSSLGQMK [Q18S]: the protein stability index is 2.16.

As for WIVDKQHVYIGSAGLDWDSLGQMK [Q18D], the protein stability index worked out at 2.42.

For the variant WIVDKQHVYIGSAGLDWISLGQMK [Q18I], the protein stability index turned out to be 2.62.

In the case of WIVDKQHVYIGSAGLDWMSLGQMK [Q18M], the protein stability index worked out at 3.07.

On to WIVDKQHVYIGSAGLDWASLGQMK [Q18A], for which the protein stability index came to 1.95.

As for WIVDKQHVYIGHAGLDWQSLGQMK [S12H], the protein stability index came to 1.62.

With WIVDKQHVYIGPAGLDWQSLGQMK [S12P], the protein stability index was determined as 1.89.

On to WIVDKQHVYIGVAGLDWQSLGQMK [S12V], for which the protein stability index was 2.35.

Take WIVDKQHVYIGDAGLDWQSLGQMK [S12D]: the protein stability index turned out to be 1.57.

As to WIVDKQHVYIGIAGLDWQSLGQMK [S12I], the protein stability index was determined as 3.48.

Take WIVDKQHVYIGEAGLDWQSLGQMK [S12E]: the protein stability index amounted to 1.52.

On to WIVDKQHVSIGSAGLDWQSLGQMK [Y9S], for which the protein stability index was 2.01.

On to WIVDKQHVMIGSAGLDWQSLGQMK [Y9M], for which the protein stability index is 1.58.

Consider WIVDKQHVYIGSAGLDWQSLSQMK [G21S], for which the protein stability index stood at 1.52.

For the variant WIVDKQHVYIGSAGLDWQSLCQMK [G21C], the protein stability index was determined as 1.91.

As for WIVDKQHVYIGSAGLDWQSLDQMK [G21D], the protein stability index was 2.

As for WIVDKQHVYIGSAGLDWQSLLQMK [G21L], the protein stability index worked out at 2.88.

For the variant WIVDKQHVYIGSAGLDWQSLYQMK [G21Y], the protein stability index amounted to 1.72.

On to WIVDKQHVYIGSAGLDWQSLMQMK [G21M], for which the protein stability index amounted to 1.89.

Consider WIVDKQHVYIGSAGLDEQSLGQMK [W17E], for which the protein stability index came to 2.1.

For the variant WIVDKQHVYIGSAGLDDQSLGQMK [W17D], the protein stability index amounted to 1.94.

In the case of WIVDPQHVYIGSAGLDWQSLGQMK [K5P], the protein stability index came to 1.74.

Turning to WIVDCQHVYIGSAGLDWQSLGQMK [K5C], the protein stability index was 2.29.

With WIVDHQHVYIGSAGLDWQSLGQMK [K5H], the protein stability index is 1.55.

As for WIVDYQHVYIGSAGLDWQSLGQMK [K5Y], the protein stability index came out at 1.61.

Regarding WIVDKQHVYIGSAGLDWQSLGQVK [M23V], the protein stability index worked out at 1.29.

WIVDKQHVYIGSAGLDWQSLGQHK [M23H]: the protein stability index is 1.32.

WFVDKQHVYIGSAGLDWQSLGQMK [I2F]: the protein stability index stood at 1.64.

In the case of WMVDKQHVYIGSAGLDWQSLGQMK [I2M], the protein stability index is 1.5.

For the variant WIVDKQHVYIGSAGLLWQSLGQMK [D16L], the protein stability index is 2.44.

Take WIVDKQHVYIGSAGLFWQSLGQMK [D16F]: the protein stability index came to 2.16.

Turning to WIVDKQHVYIGSAGLWWQSLGQMK [D16W], the protein stability index was 3.03.

With WIVDKQHVYIGSAGLAWQSLGQMK [D16A], the protein stability index stood at 3.8.

On to WIVDKQHVYSGSAGLDWQSLGQMK [I10S], for which the protein stability index is 1.73.

As for WIVDKQHVYLGSAGLDWQSLGQMK [I10L], the protein stability index is 2.41.

Turning to WIVDKQHVYDGSAGLDWQSLGQMK [I10D], the protein stability index was 2.41.

Consider WIVDKQHVYHGSAGLDWQSLGQMK [I10H], for which the protein stability index amounted to 1.93.

Turning to WIVDKQHVYMGSAGLDWQSLGQMK [I10M], the protein stability index came out at 2.11.

Turning to WIVDKQHVYIGSAFLDWQSLGQMK [G14F], the protein stability index worked out at 2.02.

On to WIVDKQHVYIGSANLDWQSLGQMK [G14N], for which the protein stability index was found to be 2.15.

In the case of WIVDKQHVYIGSAGLDWQSQGQMK [L20Q], the protein stability index was determined as 1.54.

In the case of WIVDKQHVYIGSAGLDWQSSGQMK [L20S], the protein stability index was determined as 1.85.

With WIVDKQHVYIGSAGLDWQSFGQMK [L20F], the protein stability index turned out to be 1.61.

Consider WIVDKQHVYIGSAGLDWQSYGQMK [L20Y], for which the protein stability index was 1.97.

As for WIVDKQHVYIGSAGLDWQSGGQMK [L20G], the protein stability index was 2.43.

WIVDKQHVYIGSAGLDWQLLGQMK [S19L]: the protein stability index stood at 3.25.

Turning to WIVDKQHVYIGSAGLDWQDLGQMK [S19D], the protein stability index is 1.9.

Regarding WIVDKQHVYIGSAGLDWQNLGQMK [S19N], the protein stability index came out at 1.45.

WIVDKQHVYIGSAGLDWQQLGQMK [S19Q]: the protein stability index stood at 1.9.

Take WIVDKQHVYIGSAGLDWQCLGQMK [S19C]: the protein stability index worked out at 2.62.

Regarding CIVDKQHVYIGSAGLDWQSLGQMK [W1C], the protein stability index is 1.59.

Consider LIVDKQHVYIGSAGLDWQSLGQMK [W1L], for which the protein stability index is 2.12.

With WIVDKQCVYIGSAGLDWQSLGQMK [H7C], the protein stability index is 1.37.

WIVDKQRVYIGSAGLDWQSLGQMK [H7R]: the protein stability index turned out to be 2.36.

On to WIVDKQPVYIGSAGLDWQSLGQMK [H7P], for which the protein stability index came to 2.27.

With WIVDKQAVYIGSAGLDWQSLGQMK [H7A], the protein stability index worked out at 2.63.

Consider WIVDKQEVYIGSAGLDWQSLGQMK [H7E], for which the protein stability index was determined as 1.42.

In the case of WIVDKQHVYIGSLGLDWQSLGQMK [A13L], the protein stability index stood at 2.44.

On to WIVDKQHVYIGSYGLDWQSLGQMK [A13Y], for which the protein stability index amounted to 1.98.

WIVDKQHVYIGSPGLDWQSLGQMK [A13P]: the protein stability index came out at 1.55.

As to WIVDKKHVYIGSAGLDWQSLGQMK [Q6K], the protein stability index was determined as 1.66.

On to WIVDKFHVYIGSAGLDWQSLGQMK [Q6F], for which the protein stability index came out at 2.05.

Consider WIVDKLHVYIGSAGLDWQSLGQMK [Q6L], for which the protein stability index stood at 2.87.

In the case of WIVDKNHVYIGSAGLDWQSLGQMK [Q6N], the protein stability index was determined as 1.58.

With WIVDKHHVYIGSAGLDWQSLGQMK [Q6H], the protein stability index amounted to 2.1.

On to WIVDKQHVYIGSAGLDWQSLGWMK [Q22W], for which the protein stability index was determined as 2.11.

On to WIVDKQHVYIGSAGLDWQSLGRMK [Q22R], for which the protein stability index is 1.37.

Regarding WIVDKQHVYIGSAGLDWQSLGPMK [Q22P], the protein stability index is 2.01.

With WIVDKQHVYIGSAGLDWQSLGKMK [Q22K], the protein stability index was 2.32.

WIVDKQHVYIGSAGLDWQSLGCMK [Q22C]: the protein stability index is 2.35.

The record behind these values is the supplement of paper PMC10567573.
